Measurements reported in paper PMC6754870 (2019).

Key:
VEGFR2 = target: T1, VEGFR2 (Rattus norvegicus, UniProt O08775); test: [125I]-VEGF-A saturation binding to isolated LSECs at 4°C, Scatchard
T1 chain: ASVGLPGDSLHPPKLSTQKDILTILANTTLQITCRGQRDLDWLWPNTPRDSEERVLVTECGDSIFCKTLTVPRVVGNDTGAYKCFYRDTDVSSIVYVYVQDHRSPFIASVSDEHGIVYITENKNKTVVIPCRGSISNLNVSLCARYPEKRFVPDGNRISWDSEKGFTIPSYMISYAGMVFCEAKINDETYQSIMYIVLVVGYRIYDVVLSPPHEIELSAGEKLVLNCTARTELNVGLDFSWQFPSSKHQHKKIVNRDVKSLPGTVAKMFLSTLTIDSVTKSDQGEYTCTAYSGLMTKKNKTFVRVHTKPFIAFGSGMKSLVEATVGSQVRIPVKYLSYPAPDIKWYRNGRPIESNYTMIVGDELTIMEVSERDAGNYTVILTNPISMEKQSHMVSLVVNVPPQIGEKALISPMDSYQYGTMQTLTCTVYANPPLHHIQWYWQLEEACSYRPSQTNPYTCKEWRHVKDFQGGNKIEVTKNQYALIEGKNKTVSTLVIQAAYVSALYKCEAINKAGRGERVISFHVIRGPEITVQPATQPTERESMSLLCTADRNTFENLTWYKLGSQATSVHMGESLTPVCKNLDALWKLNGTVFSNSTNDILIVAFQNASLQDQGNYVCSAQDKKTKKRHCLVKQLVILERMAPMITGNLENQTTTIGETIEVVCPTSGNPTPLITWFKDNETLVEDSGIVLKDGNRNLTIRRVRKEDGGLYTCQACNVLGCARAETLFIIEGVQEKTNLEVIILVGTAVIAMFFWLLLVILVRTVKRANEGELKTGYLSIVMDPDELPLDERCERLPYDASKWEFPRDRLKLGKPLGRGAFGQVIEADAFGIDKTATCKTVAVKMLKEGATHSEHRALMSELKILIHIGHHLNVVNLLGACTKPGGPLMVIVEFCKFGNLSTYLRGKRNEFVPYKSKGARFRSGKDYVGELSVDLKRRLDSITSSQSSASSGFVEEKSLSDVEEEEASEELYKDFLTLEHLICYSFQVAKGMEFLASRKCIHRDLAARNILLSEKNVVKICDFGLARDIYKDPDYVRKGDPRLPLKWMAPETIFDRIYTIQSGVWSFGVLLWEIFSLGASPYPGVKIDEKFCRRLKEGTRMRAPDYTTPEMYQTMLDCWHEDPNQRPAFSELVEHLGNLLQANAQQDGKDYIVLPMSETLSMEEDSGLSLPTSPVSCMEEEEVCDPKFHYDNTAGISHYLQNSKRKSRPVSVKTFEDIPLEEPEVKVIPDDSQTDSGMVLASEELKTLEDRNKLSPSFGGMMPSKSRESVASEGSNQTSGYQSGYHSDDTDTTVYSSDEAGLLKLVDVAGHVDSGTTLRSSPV

VEGFR1 = target: T2, VEGFR1 (Rattus norvegicus, UniProt P53767); test: as above
T2 chain: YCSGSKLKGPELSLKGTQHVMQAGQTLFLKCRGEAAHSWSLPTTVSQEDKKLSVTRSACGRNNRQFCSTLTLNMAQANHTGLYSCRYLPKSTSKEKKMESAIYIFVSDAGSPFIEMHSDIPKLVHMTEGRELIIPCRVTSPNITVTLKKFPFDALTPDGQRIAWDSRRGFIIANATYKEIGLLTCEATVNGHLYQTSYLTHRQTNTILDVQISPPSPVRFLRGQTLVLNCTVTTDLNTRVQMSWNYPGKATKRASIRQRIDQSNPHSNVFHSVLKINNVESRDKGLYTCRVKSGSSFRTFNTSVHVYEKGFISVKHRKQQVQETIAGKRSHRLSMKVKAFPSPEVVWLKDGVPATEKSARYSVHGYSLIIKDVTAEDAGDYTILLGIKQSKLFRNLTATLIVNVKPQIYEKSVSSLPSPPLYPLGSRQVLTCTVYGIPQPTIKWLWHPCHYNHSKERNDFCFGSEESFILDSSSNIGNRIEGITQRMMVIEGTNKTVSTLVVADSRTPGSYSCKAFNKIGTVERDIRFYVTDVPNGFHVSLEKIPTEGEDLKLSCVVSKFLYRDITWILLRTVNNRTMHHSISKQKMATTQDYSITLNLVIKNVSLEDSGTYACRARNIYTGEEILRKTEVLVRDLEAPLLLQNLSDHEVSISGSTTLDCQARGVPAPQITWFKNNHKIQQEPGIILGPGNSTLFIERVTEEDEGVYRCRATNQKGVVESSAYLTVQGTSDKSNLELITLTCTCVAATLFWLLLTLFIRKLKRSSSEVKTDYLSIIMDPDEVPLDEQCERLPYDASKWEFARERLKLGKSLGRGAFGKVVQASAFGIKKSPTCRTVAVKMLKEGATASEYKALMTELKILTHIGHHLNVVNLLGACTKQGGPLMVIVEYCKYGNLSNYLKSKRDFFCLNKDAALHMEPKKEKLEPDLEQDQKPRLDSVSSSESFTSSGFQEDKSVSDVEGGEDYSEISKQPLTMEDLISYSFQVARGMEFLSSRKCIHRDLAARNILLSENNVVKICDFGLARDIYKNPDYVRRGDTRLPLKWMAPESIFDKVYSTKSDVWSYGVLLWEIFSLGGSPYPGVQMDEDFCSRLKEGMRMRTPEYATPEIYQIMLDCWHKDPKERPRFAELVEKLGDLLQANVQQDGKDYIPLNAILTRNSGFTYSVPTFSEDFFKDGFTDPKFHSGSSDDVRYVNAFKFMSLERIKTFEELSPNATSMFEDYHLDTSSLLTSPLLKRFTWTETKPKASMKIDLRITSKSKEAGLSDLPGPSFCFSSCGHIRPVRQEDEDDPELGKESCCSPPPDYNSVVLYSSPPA

Kd (VEGFR2): 0.21 nM
Kd (VEGFR1): 0.008 nM
B1: VEGF-A165 (protein)
chain: MTDRQTDTAPSPSYHLLPGRRRTVDAAASRGQGPEPAPGGGVEGVGARGVALKLFVQLLGCSRFGGAVVRAGEAEPSGAARSASSGREEPQPEEGEEEEEKEEERGPQWRLGARKPGSWTGEAAVCADSAPAARAPQALARASGRGGRVARRGAEESGPPHSPSRRGSASRAGPGRASETMNFLLSWVHWSLALLLYLHHAKWSQAAPMAEGGGQNHHEVVKFMDVYQRSYCHPIETLVDIFQEYPDEIEYIFKPSCVPLMRCGGCCNDEGLECVPTEESNITMQIMRIKPHQGQHIGEMSFLQHNKCECRPKKDRARQEKKSVRGKGKGQKRKRKKSRYKSWSVPCGPCSERRKHLFVQDPQTCKCSCKNTDSRCKARQLELNERTCRCDKPRR
modifications: 125I-labeled VEGF-A
